Biological target: CREB1 (recombinant, Ni-affinity purified) (UniProt P16220 1-327)
Assay: EMSA; LightShift EMSA kit: 2 ul 5x binding buffer, 6 ul CREB1, 1 ul probe, 25 C, 20 min; salt and pH not stated
Conditions: protein: recombinant; (Ni-chelating purification); chain copies: 2; label: 5' 6-FAM (FITC) on forward strand (Methods); blunt

Chain of CREB1 (recombinant, Ni-affinity purified) (P16220 whole entry): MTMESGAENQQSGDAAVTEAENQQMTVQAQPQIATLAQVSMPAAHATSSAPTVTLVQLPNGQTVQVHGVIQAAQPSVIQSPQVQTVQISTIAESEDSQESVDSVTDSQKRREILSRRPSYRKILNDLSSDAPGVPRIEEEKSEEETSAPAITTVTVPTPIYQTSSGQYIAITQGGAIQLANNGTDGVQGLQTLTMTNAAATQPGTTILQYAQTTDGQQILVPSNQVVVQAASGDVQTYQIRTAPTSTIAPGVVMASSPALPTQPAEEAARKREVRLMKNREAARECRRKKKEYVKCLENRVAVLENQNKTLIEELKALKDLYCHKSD

B1: MITF-wt probe (dsDNA)
DNA 1: TGGATGTCTTTTCTGATGTGAAATTAAA
DNA 2: TTTAATTTCACATCAGAAAAGACATCCA
- binding result: binds
